Test results taken from patent US20060177449A1.

Tests used:
[1] = biological target: monoclonal antibody 23L-2Ca; experiment: competitive EIA: unlabeled ligand varied against HRP-labeled [Cys^19-NH2] rat TGR23-2 ligand (1-19) for 23L-2Ca (FIG. 7)
[2] = biological target: monoclonal antibody 23L-1Na; experiment: competitive EIA: unlabeled ligand varied against HRP-labeled [Cys^19-NH2] rat TGR23-2 ligand (1-19) for 23L-1Na (FIG. 5)
[3] = biological target: monoclonal antibody 23L-1Ca; experiment: competitive EIA: unlabeled ligand varied against HRP-labeled [Cys^19-NH2] rat TGR23-2 ligand (1-19) for 23L-1Ca (FIG. 6)

IC50 [1] [nM]	IC50 [2] [nM]	IC50 [3] [nM]	Binder
40	60	–	SFRNGVGSGAKKTSFRRAKQ [mouse TGR23-2 ligand]
20	100	20	SFRNGVGSGVKKTSFRRA [rat TGR23-2 ligand]
–	60	–	SFRNGVGTGMKKTSFQRAKS [human TGR23-2 ligand]
